Key:
Nup153c = test: Interaction with recombinant His-Nup153c; format: binding; details: immunoprecipitated ERK2 incubated with 0.5 μg recombinant His-Nup153c
Description: FIGS. 19A-19C are autoradiographs illustrating that phospho-SPS interacts with importin-7 and releases Nup153c binding without involvment of importin-β. […]. Interaction of ERK2 with Importin-7 is enhanced by EGF stimulation and EPE mutation. HeLa cells overexpressing WT-ERK (WT), ERK-APA (APA), ERK-EPE (EPE) or GFP were serum starved and treated with EGF (50 ng/ml, 10 min). The extracts of the treated cells were then subjected to coimmunoprecipitation using A/G beads pre-conjugated with anti GFP Ab and mild washes. The coimmunoprecipitated importin-7 (first panel) and importin-β (third panel), as well as their loading amounts (panels 2 and 4 respectively) were determined by WB using anti importin-7 (αImp7) and importin-β (αImpβ) Abs. The equal amount of immunoprecipitated ERKs was determined with anti GFP (αGFP; IP) Ab. FIG. 19B. Interaction of 2GFP-SPS and its mutants with importin-7. HeLa cells overexpressing 2GFP, 2GFP-SPS, 2GFP-APA and 2GFP-EPE constructs were subjected to coimmunoprecipitation as described in FIG. 19A (without EGF stimulation). FIG. 19C. Interaction of NUP153 with WTERK2 and its APA and EPE mutants. NUP153c is elevated in APA-ERK2, but reduced in EPE-ERK2. Immunoprecipitated and stringently washed WT-ERK2 (WT), APA-ERK2 (APA) or ERK2 from […] cells pre-treated with or without TPA (250 nM, 15 min) were incubated with 0.5 μg recombinant His-Nup153c. […]

Act-GST-ERK2 = target: T1, Act-GST-ERK2 (Rattus norvegicus, UniProt P63086); test: In vitro kinase assay with active GST-ERK2; format: biochemical; details: immunoprecipitated protein as substrate, relative to GFP-ERK2
T1 construct: made in house; host or cells: bacteria co-expressing active MEK1
T1 sequence (P63086 whole entry): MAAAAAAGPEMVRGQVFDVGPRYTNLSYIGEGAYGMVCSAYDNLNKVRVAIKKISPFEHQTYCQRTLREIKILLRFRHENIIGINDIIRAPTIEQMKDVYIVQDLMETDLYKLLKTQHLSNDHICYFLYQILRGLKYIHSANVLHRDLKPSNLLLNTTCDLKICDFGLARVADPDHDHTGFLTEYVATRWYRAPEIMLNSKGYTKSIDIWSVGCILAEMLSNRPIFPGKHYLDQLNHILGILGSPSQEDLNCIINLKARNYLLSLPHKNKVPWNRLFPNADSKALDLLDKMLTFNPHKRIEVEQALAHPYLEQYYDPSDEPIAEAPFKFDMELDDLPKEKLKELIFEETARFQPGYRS
Description: FIGS. 4A-4I are autoradiographs characterizing SPS phosphorylation using an Ab to the phosphorylated SPS domain. FIG. 4A illustrates an elevation of pSPS detection upon stimulation. COS cells were transfected with WT-GFP-ERK2. Twenty-four hr after transfection, the cells were serum-starved for 16 hr and subsequently treated with the general stimulator VOOH (V, 100 μM Na3VO4 and 200 μM H2O2, 15 min), TPA (T, 250 nM, 15 min), EGF (E, 50 ng/ml for 15 min), or left untreated (NT). The GFP-ERK2 was immunoprecipitated with anti GFP Ab, extensively washed, and the IP was then subjected to Western blotting with anti phospho SPS-ERK (αphoSPS-ERK) and anti general ERK (αgen-ERK) Abs. FIG. 4B is a time course of SPS phosphorylation. […] SPS phosphorylation was detected using the anti pSPS Abs, and this was compared to the amount of genral ERKs detected by αgERK. […] SPS-phosphorylation was detected using αpSPS and αgERK Abs. […] The phosphorylation (^32P-ERK2) of ERK and its mutants was detected by autoradiography. […]
Some protein kinases downstream of MEKs that may be involved in the SPS phosphorylation are ERKs themselves (autophosphorylation) as their consensus phosphorylation site includes Ser/Thr followed by a Pro (Yoon and Seger, 2006, Growth Factors, 24, 21-44). […] As expected, ^32P incorporation to GFP-ERK2 was detected mainly when this protein was incubated with Act-ERK2. […]

reduction of phosphorylation (32P incorporation) by Act-ERK2 (Act-GST-ERK2): ~80%
B1: APA-ERK2: GFP-ERK2 with the two Ser residues of the SPS sequence replaced by Ala (protein)
chain: MAAAAAAGPEMVRGQVFDVGPRYTNLSYIGEGAYGMVCSAYDNLNKVRVAIKKISPFEHQTYCQRTLREIKILLRFRHENIIGINDIIRAPTIEQMKDVYIVQDLMETDLYKLLKTQHLSNDHICYFLYQILRGLKYIHSANVLHRDLKPSNLLLNTTCDLKICDFGLARVADPDHDHTGFLTEYVATRWYRAPEIMLNSKGYTKSIDIWSVGCILAEMLSNRPIFPGKHYLDQLNHILGILGAPAQEDLNCIINLKARNYLLSLPHKNKVPWNRLFPNADSKALDLLDKMLTFNPHKRIEVEQALAHPYLEQYYDPSDEPIAEAPFKFDMELDDLPKEKLKELIFEETARFQPGYRS
modifications: left off: large carriers
interaction with Nup153 (Nup153c): increased

From patent US10000771B2, “Nuclear targeting sequences” (Yeda Research and Development Co. Ltd., priority 2007, dated 2018)
